Kd data for two substances are collected here from publication PMC3946673.

This assay has as its target human lactoferrin from milk (human). Briefly: SPR; lactoferrin immobilised by amine coupling on Sensor Chip CM3 (around 1000 RU); EndoE variants injected at typically 31-500 nM, 15 µl/min, 25°C, 10 mM Hepes pH 7.5, 150 mM NaCl, 0.005% surfactant P20; BIAcore 2000; 1:1 Langmuir fit, KD from mean values of the rate constants. A general note: SPR reads the build-up and loss of mass on a sensor chip optically.

The substance “EndoE(E186Q) (from UniProt Q6U890 1-837) (enzyme)” displayed a dissociation constant Kd of 44 nM.

For the substance “EndoE(E662Q) (from UniProt Q6U890 1-837) (enzyme)”, the Kd was 3.7 nM.

As a reminder, the Kd is the constant that tells how readily two partners part at equilibrium. The low end stands for higher affinity, the high end for lower affinity.
